Source: patent US20150139990A1 (DAINIPPON SUMITOMO PHARMA, published 2015)

Experiments:
Assay in all cases: ELISA
[1] = target: T1, h156c human-chicken CD81 chimera (human; chicken)
T1 construct: as m30; not shown: C-terminal V5 and 6xHis tags
T1 chain: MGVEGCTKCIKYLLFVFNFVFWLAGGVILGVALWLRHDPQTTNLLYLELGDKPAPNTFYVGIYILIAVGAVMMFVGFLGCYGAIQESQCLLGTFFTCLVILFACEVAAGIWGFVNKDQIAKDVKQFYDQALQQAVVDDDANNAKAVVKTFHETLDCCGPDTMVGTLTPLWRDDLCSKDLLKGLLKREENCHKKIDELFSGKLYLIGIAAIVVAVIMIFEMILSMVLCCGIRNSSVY
Protocol: (§1) To identify the epitopes to which each of the anti-human CD81 antibodies (002-A07 and 005-001) bind, ELISA assays were performed using human-chicken CD81 chimera constructs listed in Table 6. Each construct was transiently expressed in CHO cells and its cell membrane fraction was solubilized with detergents and immobilized onto a plate.
(§2) As control antibodies, human IgG4 antibody (Acris Antibodies GmbH) and mouse IgG antibody were used. Human-chicken chimera protein was captured via His tag introduced into the C-terminal by adding the membrane fraction (5 μg/100 μL/well) prepared (1) above to Ni NTA His Sorb plate (QIAGEN) in the presence of 1% (w/v) n-Octylglucoside and incubating for 3 hours at 4° C. After washing with TBST (TBS, 0.05% (v/v) Tween 20) three times, an anti-human CD81 antibody or a control antibody (50 μL/well) was added and incubated for 1 hour at room temperature (RT). After washing, 2000 fold-diluted HRP-labeled anti-human IgG4 antibody (Mouse anti-human IgG₄ HRP clone:HP6023 Beckman Coulter) or 1000 fold-diluted HRP-labeled anti-mouse IgG antibody (Invitrogen) (50 μL/well) were added. The plate was incubated for 1 hour at RT and washed with TBST three times. And then, peroxidase activity was determined by TMB One solution (Promega; Code 53025). The reaction was stopped with 2 M H₂SO₄ (50 μL) and absorbance at 450 nm was measured.

[2] = target: T2, cCD81 (chicken CD81 construct with C-terminal V5 and 6xHis tags) (chicken)
T2 construct: as m30; not shown: C-terminal V5 and 6xHis tags
T2 chain: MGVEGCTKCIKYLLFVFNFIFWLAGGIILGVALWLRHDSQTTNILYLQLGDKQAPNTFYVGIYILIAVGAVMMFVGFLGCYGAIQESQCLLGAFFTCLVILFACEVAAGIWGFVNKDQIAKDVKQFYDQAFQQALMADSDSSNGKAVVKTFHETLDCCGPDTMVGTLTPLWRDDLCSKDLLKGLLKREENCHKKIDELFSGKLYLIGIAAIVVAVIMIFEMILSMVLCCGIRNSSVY
Protocol: as §1, §2

[3] = target: T3, h175c human-chicken CD81 chimera (human; chicken, UniProt P60033 1-236)
T3 construct: as m30; not shown: C-terminal V5 and 6xHis tags
T3 chain: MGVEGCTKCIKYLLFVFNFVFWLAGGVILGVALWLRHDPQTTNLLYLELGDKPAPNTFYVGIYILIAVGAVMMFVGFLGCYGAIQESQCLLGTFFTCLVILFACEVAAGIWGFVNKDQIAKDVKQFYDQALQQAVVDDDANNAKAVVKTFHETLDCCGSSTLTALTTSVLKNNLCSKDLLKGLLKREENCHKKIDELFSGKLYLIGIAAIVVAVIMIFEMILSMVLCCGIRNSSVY
Protocol: as §1, §2

[4] = target: T4, c156h human-chicken CD81 chimera (chicken; human, UniProt P60033 1-236)
T4 construct: as m30; not shown: C-terminal V5 and 6xHis tags
T4 chain: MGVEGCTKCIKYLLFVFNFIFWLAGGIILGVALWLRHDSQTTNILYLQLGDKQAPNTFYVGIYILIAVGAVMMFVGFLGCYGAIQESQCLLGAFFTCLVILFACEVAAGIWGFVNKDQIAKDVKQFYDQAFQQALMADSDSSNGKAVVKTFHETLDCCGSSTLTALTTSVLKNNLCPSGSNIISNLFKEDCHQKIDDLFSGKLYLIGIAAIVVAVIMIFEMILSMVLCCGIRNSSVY
Protocol: as §1, §2

[5] = target: T5, c80h human-chicken CD81 chimera (chicken; human, UniProt P60033 1-236)
T5 construct: as m30; not shown: C-terminal V5 and 6xHis tags
T5 chain: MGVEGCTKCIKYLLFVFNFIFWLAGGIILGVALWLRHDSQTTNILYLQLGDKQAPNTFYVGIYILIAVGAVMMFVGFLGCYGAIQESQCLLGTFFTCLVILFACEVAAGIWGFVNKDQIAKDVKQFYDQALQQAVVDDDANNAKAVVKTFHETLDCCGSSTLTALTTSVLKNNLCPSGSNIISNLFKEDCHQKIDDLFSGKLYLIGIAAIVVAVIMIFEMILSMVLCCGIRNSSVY
Protocol: as §1, §2

absorbance at 450 nm relative to hCD81 [1]: < 10% | absorbance at 450 nm relative to hCD81 [2]: < 10% | binding result [3]: binds | absorbance at 450 nm relative to hCD81 [4]: < 10% | binding result [5]: binds
B1: 002-A07 IgG4 antibody (antibody)
heavy: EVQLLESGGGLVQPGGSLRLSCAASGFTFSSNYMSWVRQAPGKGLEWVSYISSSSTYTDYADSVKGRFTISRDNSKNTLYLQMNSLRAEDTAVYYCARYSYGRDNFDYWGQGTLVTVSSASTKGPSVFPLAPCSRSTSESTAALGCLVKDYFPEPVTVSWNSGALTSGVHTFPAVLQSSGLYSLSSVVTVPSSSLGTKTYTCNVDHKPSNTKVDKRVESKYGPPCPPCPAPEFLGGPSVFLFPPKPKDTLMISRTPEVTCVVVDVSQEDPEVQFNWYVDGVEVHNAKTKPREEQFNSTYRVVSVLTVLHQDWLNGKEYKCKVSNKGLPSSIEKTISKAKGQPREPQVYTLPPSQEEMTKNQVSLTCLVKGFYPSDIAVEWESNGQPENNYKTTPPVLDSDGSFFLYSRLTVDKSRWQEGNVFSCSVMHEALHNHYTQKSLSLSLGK
light: QSVLTQPPSASGTPGQRVTISCTGSTSNIGAGYDTHWYQQLPGTAPKLLIYGNSNRPSGVPDRFSGSKSGTSASLAISGLRSEDEADYYCQSYDTNLSVWVFGGGTKLTVLGQPKAAPSVTLFPPSSEELQANKATLVCLISDFYPGAVTVAWKADSSPVKAGVETTTPSKQSNNKYAASSYLSLTPEQWKSHRSYSCQVTHEGSTVEKTVAPTECS
notes: human IgG4 S228P, lambda light chain
